B1: TPR 5TU (parent)
chain: GGAUCUUCUCGAUCUAACAAAAAAGACAAAUCUGCCACAAAGCUUGAGAGCAUCUUCGGAUGCAGAGGCGGCAGCCUUCGGUGGCGCGAUAGCGCCAACGUUCUCAACUAUGACACGCAAAACGCGUGCUCCGUUGAAUGGAGUUUAUCAUG

Variants at the floor of the assay were thinned out.

The variants in this data set derive from B1. Nature of the data set: polymerase ribozyme fitness, log enrichment relative to wild type (log ratio); higher = more active; in vitro selection for triplet polymerase activity. Put shortly: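 Only genotypes with ≥10 input reads and ≥1 read per output were kept after Illumina sequencing of input and output libraries. These libraries were PCR-built, transcribed mutants of each subunit of a heterodimeric triplet polymerase ribozyme, each put through one triplicate in vitro selection round with frozen incubation at −7 °C, gel excision of extended constructs, streptavidin-bead capture and RT-PCR. Fitness is a logarithmic ratio of genotype enrichment to wild-type enrichment, from inverse-variance-weighted replicate averages, with the logarithm in base 2.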
GGUUCUUCUCGAUCUAACAAAAAAGUCAUAUCUGCCACAAAGCUUGAGCGCAUCUUCGGAUGCAGAGGCGGCAGCCUUCGGUGGCGUGAUAGCGCCAACGUUCUCAACUAUGAUACGCAAAACGCGUGCUCCGUUGAAUGAAGUUUAUCAUG [A3U A26U A29U A49C C87U C114U G141A]: the “polymerase ribozyme fitness (log ratio)” value is not above -4.2. Consider GGAUCUUCUCGAUCUAACAAAAAAGACAAAUCUGCCACAAAGCUUGAGAGCAUCUUCGGAUGCAGAGGCGGCAGCCUUCGGUGGUGCGAUAGCGCUAACGUUCUCAACUAUGACACGCAAAACGCCUGCUCCGUUGAAUGGAGUUUGUCAUG [C85U C96U G126C A147G], for which the “polymerase ribozyme fitness (log ratio)” value was not above -4.2. As for GGAACUUCUCGAUCUAACAAAAAAGACAAAUCUGCCAUAAUGCUUGAGAGCAUCUUCGAAUGCAGAGGCGGCAGCCUUCGGUGGCGCGAUAGCGCCAACGUUCUCAACUAUGACACGCAAAACGCGUGCUCCGUUGUAUGGAGUUUAUCAUG [U4A C38U A41U G59A A137U], the “polymerase ribozyme fitness (log ratio)” value is -4.07. Regarding GGAUCUUCUCGAUCUAACAAAAAAGACAAAUCUGCCACAAAGCUUGAGAGCAUCUUCGGAUGCAGAGGCGGCAGCCUUCGGAGGCGCGAUAGCGCCAAAGUUCUCAACUAUGACACGUAAAACGCGUGCUCCGUUGAAUGGAGUUUAUCAUG [U82A C99A C118U], the “polymerase ribozyme fitness (log ratio)” value is -1.42. For the variant GGAUCUUCUCGAUCUAACAAAAAAGACAAAUCUGCCUCAAAGCUUGAGUGCAUCAACGGAUGCAGAGGCGGCAGCCUUCGGUGGCGCGAUAGCGCCAACGUUCUCAACUAUGACACGCAAAACGCGAGCUCCGUUGAAUGGAGUUUAUCAUG [A37U A49U U55A U56A U127A], the “polymerase ribozyme fitness (log ratio)” value was not above -4.2.

For the variant GGAUCUUCUCGAUCUAACAAAGAGGACAAAUCUGCCACAAAGCUUGAGAGCAUCUUCGGAUGCAGAGGCGGCAGCCUUCGGUGGCGCGAUAUCGCCAACGUUCUCAACUAUGACACGCAAAACGCGUGCUCCGUUGAAUGGAGUUUAUCAUG [A22G A24G G92U], the “polymerase ribozyme fitness (log ratio)” value is not above -4.2. For GGAUCUUCUCGAUCUAACAAAAAAGACAAAUCUGCCACAAAGCUUGAGAGCAUCUUCGGAUGCAGAGGCGGCAGCCUUCGGUGGCGCGAUAGCGCCAACGUUCUCAACUAUGACACGCAAAACGCGUGCUCUGUUGAAGAGAGUUUAUCAUG [C132U U139G G140A], the “polymerase ribozyme fitness (log ratio)” value was found to be 1.22. GGAUCUUCUCGAUCUAACAACAAAGACAAAUCUGCCACAAAGCUUGAGAGCAUCUUCGGAUGCAGAGGCGGCAGCCUUCGGUGGGGCGAUAGCGCCAACGUUUUCAACUAUGACACGCAAAACGCGUGCUCCGUUAAAUGGAGUUUAUCAUG [A21C C85G C103U G136A]: the “polymerase ribozyme fitness (log ratio)” value is -1.18. Take GGAUCUUCUCGAUCUAACAAAAAAGACAAAUCUGCCACAAAGCUUGAGAGCAUCUUUGGAUGCAGAGGCGGCAGCCUUCGGUGGCGCGAUAGCGCCAACGUUCUCAACUAUGACACGGAAAACGCGUGCUCCGUUGAAUGGAGUCUAUCAUG [C57U C118G U145C]: the “polymerase ribozyme fitness (log ratio)” value is -0.881. In the case of GGAUCUUCUCGAUCUAACAAAAAAGACAAAUGUGCCACAAAGCUUGAGAACAUCUUCGGAACCAGAGGCGACAGCCUUCGGUGGCGCGAUUGCCCCAACGUUCUCAACUAUGACACGCAAAACGCGUGCUCCGUUGACUGGAGUUUAUCAUG [C32G G50A U61A G62C G71A A91U G94C A138C], the “polymerase ribozyme fitness (log ratio)” value is not above -4.2.

GGAUCUUCUCGAUCUAACGAAAAAGACAAAUCUGCCACACAGCUUGAGAGCAUCUUCGGAUGCAGAGGCGGCAGCCUUCGGUGGGGCGAUAGCGCCAACGUUCUCAACUAUGACACGCAAAACGCGUGCUCCGUUGAAUGGAGUUUCUCAUG [A19G A40C C85G A147C]: the “polymerase ribozyme fitness (log ratio)” value is -3.28. Turning to GGAUCUUCUCCAUCUAACAGAAAAGACAAAUCUUCCACAAAGCUUGAGAGCAUCUUCGGAUGCAGAGGCGGCAGCCUUCGGUGGCGCGAUAGCGCCAACGUUCUCAACUAUGACACGCAAAACGCGUGCUCCGUUGUAUGGAGUUUAUCAUG [G11C A20G G34U A137U], the “polymerase ribozyme fitness (log ratio)” value is not above -4.2.

In the case of GGAUCUUCUCGAUCUAACAAAAAAGACAAAUCUGCCACUAAGCUUGAGAGCGUCUUCGGAUGCAGAGGCGGCAGCCUUGGGUGCCGCGAUAGCGCCAACGUUCUCAAUUAUGACACGCAAAACGCGUGCUCCGUUGAAUGGAGUUUAUCAUG [A39U A52G C79G G84C C108U], the “polymerase ribozyme fitness (log ratio)” value was not above -4.2. To GGAUCUUCUCGAUCUAACAAAAAAGACAAAUCUGCCACAAAGCUUGAGAGCAUCUUCGGAUGCAGAGGCGGCAGCCUUCGGUGGCGCGAUAGCGCGAACGUUCUCAACUAUGAUACGCAAAACGCGUGCUCCGUUGAAUGGAGUUUAUCAUG [C96G C114U] belongs -2.18; to GGAUCUUCUCGAUCUAACAAAAAAGACAAAUCUGCCACAAAGCUUGAGAGCAUCUUAGGAUGCAGAGGCGGCAGCCUUCGGUGGCGCGAUAGCGCCAACGUUCUCACCUAUGACACGCAAAACGAGUGCUCCAUUAAAUGGAGUUUAUCAAG [C57A A107C C125A G133A G136A U151A], not above -4.2; to GGAUCUUCUCGAUCUAACAAAAAAGACAAAUCUGCCACAAAGCUUGAGAGCAUCUUCGCAUGCAGAAGCGGCAGCCUGAGGUGGCGAGAUAGCGCCAACGUUCUCAACUAUGACACGCAAAACGCGUGCUCCGUUGAAUGGAAUUUAUCAUG [G59C G67A U78G C79A C87A G143A], not above -4.2. On to GGAUCUUCUCGAUCUAACAAAAAAGACAAAUCUGCCACAAAGCUUGAGAGCAUCUUCGGGUGCAGAGGCGGCGGCCUUCGGUGGAGCGAUAGCGCCAACGUUCUCAACUAUGACACGCAAAACGCGUGCUCCGUUGAAUGGAGUUUAUCAUG [A60G A73G C85A], for which the “polymerase ribozyme fitness (log ratio)” value was -2.02. With GGAUCUUCUCGAUCUAACAAAAAAGACAAAUCUGCCACAAAGCAUGAGAGCAUCUUCCGAUGCAGAGGCGGCAGCCUUCGGUGGCGCGAUACCGCCAACGUUCUCAACUAUGACACGCAAAACGCGUGCUCCGUUGAAUGUAGUUUAUAAUG [U44A G58C G92C G141U C149A], the “polymerase ribozyme fitness (log ratio)” value is not above -4.2. Turning to GGAUCUUCUCGAUCUAACAUUAAAGACAAAUCUGCCCCAAAGCUUGAGAGCAUCUUCGGAUGCAGAGGCGGCAGCCUUCGGUGGCGCGAUAGCGCAAACGUUCUCAACUAUGACACGCAAGACGCGUGCUCCGUUGAAUGGAGUUUAUCAUG [A20U A21U A37C C96A A121G], the “polymerase ribozyme fitness (log ratio)” value is -1.8.

The values are drawn from the RNAGym collection of RNA variant scans (doi:10.1073/pnas.2313332121).
